Laboratory results taken from paper PMC9537531, “DNA-delivered antibody cocktail exhibits improved pharmacokinetics and confers prophylactic protection against SARS-CoV-2” (Nature Communications, 2022).
“And” between values parts separate entries of the source, which are not always exact repeats. Equal values may be shown once.

Target: T1, SARS-CoV-2 6P spike ectodomain peplomer (USA-WA1/2020; 6P stabilization) (SARS-CoV-2 USA-WA1/2020 (MN985325), stabilised)
T1 construct: also called stabilized spike trimer; spike peplomer
Test: cryo-EM structure
Settings: both partners purified

Binder	stoichiometry N
2130 dFab, DNA-encoded Fab obtained from serum-derived DMAb 2130 TM(m3) (Fab, V domains shown, also called dFab 2130) VH: EVQLVESGGGLVKPGGSLRLSCAASGFTFRDVWMSWVRQAPGKGLEWVGRIKSKIDGGTTDYAAPVKGRFTISRDDSKNTLYLQMNSLKTEDTAVYYCTTAGSYYYDTVGPGLPEGKFDYWGQGTLVTVSS VL: not shown	3 dFabs per spike trimer
2196 dFab, DNA-encoded Fab obtained from serum-derived DMAb 2196 TM(m3) (Fab, V domains shown, also called dFab 2196; 2196DMAb Fab) VH: QMQLVQSGPEVKKPGTSVKVSCKASGFTFMSSAVQWVRQARGQRLEWIGWIVIGSGNTNYAQKFQERVTITRDMSTSTAYMELSSLRSEDTAVYYCAAPYCSSISCNDGFDIWGQGTMVTVSS VL: not shown	1 dFab per spike trimer and 2 dFabs per spike trimer and 1 copy per RBD (all three RBDs)
